According to US12329806B2, “Compound for modulating rlr, tlr, oas and/or oncostatin m pathways, use thereof for preparing a medicine, composition, method for modulating said pathways and method of treatment” (Instituto Butantan, priority 2018, dated 2025):

Tests used:
Test in all cases: Cell viability tests (survival rate), previous experiment
Settings in all cases: rounded values
[1] = system: Mia-PaCa-2 cells; format: cell-based, human
Source text: (§1) ER stress also promotes mitochondrial dysfunction, Cytochrome c release, PARP cleavage, Ca+^2 mobilization and caspase activation in SK-MEL-28 and Mia-PaCa-2 cells, positively regulating CASP3. The survival rate of the previous experiment, calculated using cell viability tests, is herein summarized: Mia-PaCa-2 67%, SK-MEL-28 44%, SK-MEL-5 42%, non-tumoral human fibroblasts 100% (rounded values). These numbers indicate that part of the cells possibly survives through a positive unfolded protein response (UPR) and part dies. […] Furthermore, autophagy could also be evoked to recover a global tissue homeostasis, and, in this case, there is the signature of immunogenic cell death (ICD). It is believed that the ICD could explain this.

[2] = system: SK-MEL-28 cells; format: cell-based, human
Source text: as §1

[3] = system: non-tumoral human fibroblasts; format: cell-based
Source text: as §1

[4] = system: SK-MEL-5; format: cell-based
Source text: as §1

B1: Amblyomin-X: recombinant Kunitz type protein identified in a cDNA library of Amblyomma sculptum tick salivary glands (protein)
chain: MRQLAVLALVIFTGMCVESQSANSKAVCNLPKLAGDETCSNKTEIRWYYNGTACEAFIFKGCGGNDNNFDRVDDCQRLCEEQTHFHFESPKLICFKVQDYWILNDIMKKNLTGISLKSEEEDADSGEID
modifications: Amblyomin-X
notes: recombinant Kunitz type protein identified in a cDNA library of Amblyomma sculptum tick salivary glands
survival rate [1]: 67% | survival rate [2]: 44% | survival rate [3]: 100% | survival rate [4]: 42%
